# Data from article PMC11840924, “Identifying Allosteric Hotspots in Mycobacterium tuberculosis cAMP Receptor Protein through Structural Homology” (Biochemistry, 2025).
# T1: CRPMTB wildtype (Mycobacterium tuberculosis, UniProt P9WMH3 1-224)
# T1 sequence: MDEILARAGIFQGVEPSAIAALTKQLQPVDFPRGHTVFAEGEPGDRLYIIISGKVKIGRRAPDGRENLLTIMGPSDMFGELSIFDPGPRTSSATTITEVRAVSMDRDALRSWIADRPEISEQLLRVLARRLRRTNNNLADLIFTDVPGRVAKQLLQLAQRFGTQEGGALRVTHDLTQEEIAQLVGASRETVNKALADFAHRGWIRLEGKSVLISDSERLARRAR
# Tests used:
# CRPMTB wildtype [1] = molecular target: T1, CRPMTB wildtype; assay: fluorescence anisotropy; 1 mM cAMP; specific 1:1 transition; 75 mM KCl, 50 mM HEPES, 1 mM EDTA, pH 7.6; […]; temperature not stated; settings: protein: recombinant; tags: His-tag (pET-3a); chain copies: 2; label: fluorescein; blunt
# CRPMTB wildtype [2] = molecular target: T1, CRPMTB wildtype; assay: fluorescence anisotropy; no cAMP; specific 1:1 transition; 75 mM KCl, 50 mM HEPES, 1 mM EDTA, pH 7.6; […]; temperature not stated; settings: protein: recombinant; tags: His-tag (pET-3a); chain copies: 2; label: fluorescein; blunt
binder,measurement,setting,value
serC32 full-site promoter (dsDNA) DNA 1: GCGCGTAGTGTGAACAAGCTCACATGCAAGCC DNA 2: GGCTTGCATGTGAGCTTGTTCACACTACGCGC,Ka,CRPMTB wildtype [1],2.81 ± 0.01 10^8 M-1
same,Ka,CRPMTB wildtype [2],1.87 ± 0.01 10^8 M-1
